“Also recorded” adds a separate entry of the source.
What was measured:
Format in all cases: cell-based
[1] = system: Primary human hepatic stellate cells (HSCs); assay: Collagen type I production by stimulated HSCs, western blot (Example 7); conditions: 48 h stimulation, chymase 30, 100 or 300 ng/mL, tryptase 300, 1000, 3000 ng/mL, alone or in combination
Experimental: Primary human hepatic stellate cells (HSCs) were grown to confluence and maintained in growth media for 10 days. Cells were maintained in serum-free media for 48 h and subsequently stimulated with either human chymase alone (30, 100 or 300 ng/mL), human tryptase alone (300, 1000, 3000 ng/mL) or human chymase and tryptase in combination as indicated for a further 48 h. The PAR2 agonist at 10 or 100 ng/mL and TGFb1 (3 ng/mL) served as a positive control, whilst serum-free conditions provided a negative control.
Media was removed and the cells and extracellular proteins deposited lysed in RIPA buffer.

[2] = system: Primary human HSCs; assay: Secretion of pro-fibrogenic factors by stimulated HSCs, Luminex (Example 9); conditions: 48 h
Experimental: Primary human HSCs were grown to confluence and maintained in growth media for 10 days. Cells were maintained in serum-free media for 48 h and subsequently stimulated with either human Chymase (30, 100 or 300 ng/mL), human tryptase alone (300, 1000, 3000 ng/mL) or in combination with chymase for a further 48 h. The TGFβ1 (3 ng/mL) served as a positive control and serum-free conditions as a negative control. Media was removed after 48 h and levels of secreted IGFBP-3, Tenascin C, Collagen IV and Endostatin levels were determined by Luminex.

[3] = system: Primary human hepatic stellate cells (HSCs); assay: Deposited collagen type I in stimulated HSCs, immunofluorescence (Example 8)
Experimental: Primary human hepatic stellate cells (HSCs) were grown for 2 days. Cells were maintained in serum-free media for 48 h and subsequently stimulated with either human chymase (C) at 100 ng/mL, human tryptase (T) alone at 1000 ng/mL) or in combination (C 100 ng T 1000 ng) as indicated for a further 48 h. TGFβ1 served as a positive control, and serum-free conditions (SFM) as a negative control.
Following stimulation, media was removed and the cells washed in PBS and fixed with Formalin 4% for 15 min. Cells and extracellular proteins were stained with Rb ANTI-Col I (Novus Biologicals, NB600-408, 1:500) and images were acquired at 20× using a confocal microscope.

[4] = system: Primary human HSCs; assay: Active/latent TGFβ in HSC conditioned media, TGFb-responsive luciferase reporter cells (Example 10); conditions: conditioned media heated at 80° C. for 10 minutes; chymase 100 (C2) and 30 ng/mL (C3)
Experimental: Primary human HSCs were grown to confluence and maintained in growth media for 10 days. Cells were maintained in serum-free media for 48 h and subsequently stimulated with either human Chymase (30, 100 or 300 ng/mL), human tryptase (300, 1000, 3000 ng/mL) or both in combination as indicated for a further 48 h. The TGFb1 (3 ng/mL) served at positive control and serum-free conditions as a negative control.
Conditioned media was collected and either transferred directly to cells harbouring a TGFb-responsive promoter linked to the firefly luciferase reporter gene for 24 h to determine the levels of active TGFb present in media, or conditioned media was heated at 80° C. for 10 minutes in order to activate in the conditioned media the latent TGFb into active TGFb present. The addition of exogenous TGFb1 (1 ng/mL served as a positive control. Cells were lysed after 24 h and levels of latent or active TGFb determined by measuring luciferase activity. The results are shown in FIG. 11.

[5] = chymase 100 ng/mL, tryptase 1000 ng/mL, 48 h

B1: chymase: human chymase, mast cell serine protease, added exogenously to stimulate hepatic stellate cells (protein, UniProt P23946 22-247, looked up)
Chymase: IIGGTECKPHSRPYMAYLEIVTSNGPSKFCGGFLIRRNFVLTAAHCAGRSITVTLGAHNITEEEDTWQKLEVIKQFRHPKYNTSTLHHDIMLLKLKEKASLTLAVGTLPFPSQFNFVPPGRMCRVAGWGRTGVLKPGSDTLQEVKLRLMDPQACSHFRDFDHNLQLCVGNPRKTKSAFKGDSGGPLLCAGVAQGIVSYGRSDAKPPAVFTRISHYRPWINQILQAN
collagen type I protein compared to basal levels in untreated cells [1]: marked increase | secreted IGFBP3 ([2]; regardless of concentration): marked increase | secreted Tenascin C ([2]; chymase 30, 100 or 300 ng/mL): concentration-dependent increase | secreted collagen IV ([2]; chymase 30, 100 or 300 ng/mL): concentration-dependent increase | secreted endostatin ([2]; chymase at all concentrations): significant increase | cell number (nuclear stain Hoechst) ([3]; C100 ng/mL, T1000 ng/mL, C100/T1000 ng/mL, relative to serum-free medium and TGF-beta controls): no effect | deposited collagen type I (collagen area / immunofluorescence intensity normalised to cell number) relative to SFM [3, 5]: did not induce a significant change | distribution of deposited collagen type I compared to serum-free alone (SFM) [3, 5]: change in distribution; also recorded: altered collagen distribution patterns | secreted latent TGFβ in conditioned media [4]: increases
